In publication PMC7489914, “Structural and functional studies of Arabidopsis thaliana legumain beta reveal isoform specific mechanisms of activation and substrate recognition” (The Journal of Biological Chemistry, 2020):

Target: T1, AtLEGβ catalytic AEP domain (up to the autocatalytic cleavage site Asn333) (Arabidopsis thaliana, UniProt Q39044 22-333)
T1 construct: Arabidopsis thaliana legumain isoform β, catalytic (AEP) domain up to the autocatalytic cleavage site Asn333; Removal of the His6 tag (cleavage within the TEV site) was only observed under very acidic pH conditions; also called catalytic domain; AEPβ
T1 sequence (looked up): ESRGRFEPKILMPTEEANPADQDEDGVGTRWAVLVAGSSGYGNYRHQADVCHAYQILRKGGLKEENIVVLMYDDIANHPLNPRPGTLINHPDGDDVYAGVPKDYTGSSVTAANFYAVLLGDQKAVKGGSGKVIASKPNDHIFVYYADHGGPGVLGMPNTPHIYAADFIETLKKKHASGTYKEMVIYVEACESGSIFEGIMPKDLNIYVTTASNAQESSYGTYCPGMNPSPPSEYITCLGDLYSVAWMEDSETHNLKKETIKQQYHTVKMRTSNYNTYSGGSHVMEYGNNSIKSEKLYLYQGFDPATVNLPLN
Test: SEC; pH 5.0-activated AtLEGβ on an S200 column, 20 mM citric acid pH 5.0, 100 mM NaCl; BSA as size standard
Conditions: both partners purified

B1: AtLEGβ AP-LSAM C-terminal fragment (Gln346–Ala486) (domain or fragment, Arabidopsis thaliana, UniProt Q39044 346-486, looked up)
chain: QRDADLLFLWHMYRTSEDGSRKKDDTLKELTETTRHRKHLDASVELIATILFGPTMNVLNLVREPGLPLVDDWECLKSMVRVFEEHCGSLTQYGMKHMRAFANVCNNGVSKELMEEASTAACGGYSEARYTVHPSILGYSA
notes: also called LSAM domain
binding result: binds
